# Source: US20210017289A1 (AbbVie / Abbott, published 2021)
# Values joined by “and” are separate entries in the source; they are usually repeats but may differ in a detail not shown here. Identical values can stand only once.
# T1: human OX40 expressed on cells (human, UniProt P43489 29-277)
# T1 sequence: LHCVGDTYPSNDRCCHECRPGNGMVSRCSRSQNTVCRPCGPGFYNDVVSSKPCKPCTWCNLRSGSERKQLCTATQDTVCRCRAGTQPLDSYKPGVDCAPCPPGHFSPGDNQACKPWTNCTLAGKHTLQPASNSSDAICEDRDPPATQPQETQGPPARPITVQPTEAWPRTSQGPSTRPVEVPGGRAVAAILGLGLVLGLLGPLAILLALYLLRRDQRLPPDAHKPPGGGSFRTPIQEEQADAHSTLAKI
# T2: mouse OX40 expressed on 293s cells (mouse, UniProt P47741 20-272)
# T2 construct: also called murine OX40
# T2 sequence: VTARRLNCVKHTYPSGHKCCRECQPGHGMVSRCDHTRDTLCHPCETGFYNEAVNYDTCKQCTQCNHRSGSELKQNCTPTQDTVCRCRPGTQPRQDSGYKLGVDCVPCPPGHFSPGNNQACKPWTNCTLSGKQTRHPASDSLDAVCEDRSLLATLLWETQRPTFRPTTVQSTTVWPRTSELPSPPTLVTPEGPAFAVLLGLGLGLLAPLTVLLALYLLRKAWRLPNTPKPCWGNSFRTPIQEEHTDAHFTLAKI
# T3: Cyno OX40-Fc fusion (cynomolgus monkey, UniProt P43489 29-214 (human entry), limits assumed)
# T3 construct: also called recombinant cynomolgus (cyno) OX40; not shown: Fc part of the fusion
# T3 chain: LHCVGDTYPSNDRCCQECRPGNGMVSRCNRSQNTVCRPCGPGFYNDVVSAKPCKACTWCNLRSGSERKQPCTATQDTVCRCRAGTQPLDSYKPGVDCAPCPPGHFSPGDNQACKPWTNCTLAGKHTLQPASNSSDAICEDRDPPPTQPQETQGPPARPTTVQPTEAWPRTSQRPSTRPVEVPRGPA
# T4: 293s-huOX40-muCRDII+III
# T4 construct: cell-surface chimera, named on the sheet by its cell line; also called human OX40 chimera with murine CRDII and CRDIII replacing human CRDII and CRDIII
# T4 receptor chain: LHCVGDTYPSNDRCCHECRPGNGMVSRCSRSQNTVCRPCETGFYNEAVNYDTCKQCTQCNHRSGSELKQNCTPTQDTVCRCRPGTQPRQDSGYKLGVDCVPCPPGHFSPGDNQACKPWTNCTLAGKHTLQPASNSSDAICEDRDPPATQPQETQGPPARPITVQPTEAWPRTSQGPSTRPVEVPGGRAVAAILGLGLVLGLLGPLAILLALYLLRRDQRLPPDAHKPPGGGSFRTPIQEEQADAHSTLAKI
# Tests used:
# [1] = target: T1, human OX40 expressed on cells; assay: cell-based or functional assay
# [2] = target: T2, mouse OX40 expressed on 293s cells; assay: flow cytometry on 293s-muOX40 cells
# Description: (§1) After plating cells, 50 μL of Hu3738 or isotype control antibody at 2 μg/mL were added to corresponding wells in duplicate for each cell line and allowed to incubate on ice for 30 minutes. Following incubation, 200 μL of Dulbecco's Phosphate Buffered Saline (DPBS) was added into each well and plates were spun down at 1000 rpm for three minutes. Supernatants from each well were removed and 50 μL of Cy5-Donkey anti-Human IgG (Jackson ImmunoResearch) secondary antibody was added at a 1:250 dilution, which was then incubated for 30 minutes on ice in the dark. Following the incubation period, 200 μL of DPBS was added prior to spinning down the plate at 1000 rpm for three minutes. Supernatants were removed and each well was re-suspended with 100 μL of DPBS+1% Formaldehyde. Samples were analyzed on the dual laser FACSCalibur flow cytometer (Becton Dickinson).
# Cyno OX40-Fc fusion = target: T3, Cyno OX40-Fc fusion; assay: ELISA on plates coated with Cyno OX40-Fc fusion
# Description: Immunolon 4×HB 96-well plates (Thermo Scientific) were coated with 1 μg/mL of Cyno OX40-Fc fusion at 4° C. overnight. Plates were blocked with PBS containing 1% bovine serum albumin (BSA) for 30 minutes at RT and then washed three times with PBST (PBS with 0.1% Tween 20). OX40-coated plates were then incubated with indicated concentrations of anti-OX40 antibody at room temperature for one hour. Plates were washed four times with PBST and then incubated for 1 hour at room temperature with 100 μL of goat anti-human FAB fragment specific-Biotin (Jackson ImmunoResearch) prepared to a dilution of 1:5000 in PBS containing 1% BSA. Plates were then washed five times in PBST and 100 μL of a 1:1000 dilution of streptavidin-HRP (Thermo Scientific) was added to each well and incubated for 30 minutes at room temperature. Plates were then washed five times in PBST and 100 μL of TMB One component (Surmodics) were added to each well and incubated at room temperature until color developed (approximately 5-10 minutes). Optical density (OD) was read at 650 nm (Molecular Devices Spectromax190).
# [3] = target: T1, human OX40 expressed on cells; assay: flow cytometry on Jurkat NF-κB reporter cells expressing human OX40
# Description: A Jurkat NF-κB reporter cell line expressing human OX40 protein was cultured in DMEM containing 10% FBS and penicillin/streptomycin (pen/strep). For the binding assay, each cell line was resuspended at 5 million cells per mL. 50 μL (250,000 cells)/well were transferred to each well of a 500 μL polypropylene 96-well plate (Nunc). A 2× stock of test anti-OX40 antibody or isotype control mAb was prepared in a separate dilution plate at 666, 333, 111, 37.03, 12.34, 4.11, 0.457, 0.152, 0.0508, 0.0169, 0.00564 nM in culture media. Each antibody (50 μL/well) was transferred into respective wells of the assay plate. Cells were incubated with the test anti-OX40 antibody or isotype control antibodies for 30 minutes at 4° C. and washed twice with 250 μL/well of PBS by centrifuging at 800 rpm for 3 minutes. Bound antibody was detected with Cy5-Donkey anti-human IgG (H+L) (Jackson ImmunoResearch) diluted to 2 μg/mL (50 μL/well) in PBS for 30 minutes at 4° C. Cells were washed once with 250 μL/well of PBS, resuspended in PBS containing 1% Formaldehyde and analyzed on a dual laser FACSCalibur (Becton Dickinson).
# 293s-huOX40-muCRDII+III = target: T4, 293s-huOX40-muCRDII+III; assay: flow cytometry on 293s transfectants, Hu3738 added at 2 µg/mL, Cy5 donkey anti-human IgG
# Description: as §1
binder,measurement,setting,value
"Hu3738 (antibody, V domains shown, Humanized antibody; also called exemplary anti-OX40 antibody Hu3738; Hu3738 VH.1b / Hu3738 VL.1) VH: EVQLVESGGGLVQPGGSLRLSCAASGFTFSRYGMSWVRQAPGKGLELVATINSNGGRTYYPDSVKGRFTISRDNAKNSLYLQMNSLRAEDTAVYYCAREGITTAYAMDYWGQGTTVTVSS VL: DIVMTQSPDSLAVSLGERATINCKASQSVDYDGDSYMHWYQQKPGQPPKLLIYAASILESGVPDRFSGSGSGTDFTLTISSLQAEDVAVYYCQQSNEDPRTFGGGTKVEIKR","ADCC reporter activity, EC50",[1],0.51 nM and 77 ng/mL
same,"IFN-γ production by human CD4+ T cells, EC50",[1],0.16 nM and 24 ng/mL
same,"proliferation of human peripheral blood CD4+ T cells, EC50",[1],0.11 nM and 16 ng/mL
same,binding result,[2],no binding (tested: 2 µg/mL)
same,EC50,Cyno OX40-Fc fusion,0.039 nM
same,EC50,[3],0.5 nM
same,binding result,293s-huOX40-muCRDII+III,no binding (tested: 2 µg/mL)
